Measurements taken from publication PMC6351639, “Synergistic effect of acetyl xylan esterase from Talaromyces leycettanus JCM12802 and xylanase from Neocallimastix patriciarum achieved by introducing carbohydrate-binding module-1” (AMB Express, 2019).

B1: AXE (Evansstolkia leycettana) (protein)
chain: VAVDHDGARLARRITRGSLQQVTNFGSNPTNVGMYIYVPNNLATNPGIVVAIHYCTGSAQAYYSGSPYAQLAEQYGFIVIYPSSPYSGTCWDVSSQAALTHNGGGDSNSIANMVTWTISQFNADTSKVFVTGSSSGAMMTNVMAATYPELFAAATVYSGVPAGCFVSSTNQVDAWNSSCAQGQVIDTPAQWASVAENMYPGYTGPRPRMQIYHGSVDTTLYPQNYYETCKQWAGVFGYNYDSPQQTINNDPEANYQTTIWGPNLQGIFATGVGHTVPIHGTQDMEWFGFA
notes: hydrolase domain only, linker and CBM1 (310-380) removed; signal peptide removed; no tag stated; pPIC9, secreted from Pichia pastoris GS115
B2: AXE + CBM1 (Evansstolkia leycettana) (protein)
chain: VAVDHDGARLARRITRGSLQQVTNFGSNPTNVGMYIYVPNNLATNPGIVVAIHYCTGSAQAYYSGSPYAQLAEQYGFIVIYPSSPYSGTCWDVSSQAALTHNGGGDSNSIANMVTWTISQFNADTSKVFVTGSSSGAMMTNVMAATYPELFAAATVYSGVPAGCFVSSTNQVDAWNSSCAQGQVIDTPAQWASVAENMYPGYTGPRPRMQIYHGSVDTTLYPQNYYETCKQWAGVFGYNYDSPQQTINNDPEANYQTTIWGPNLQGIFATGVGHTVPIHGTQDMEWFGFAGESTGGGTTTTSATTTTTSKPTSTTSSGGSTSTAVAQHWGQCGGIGWTGPTTCVSPYTCTFVNDYYYQCL
notes: mature full-length: hydrolase domain 20-309, S/T-rich linker 310-342, CBM1 343-380; signal peptide removed; no tag stated; pPIC9, secreted from Pichia pastoris GS115

Substrate: CC(=O)Oc1ccc([N+](=O)[O-])cc1
Test: purified protein
Assay type: biochemical, Evansstolkia leycettana
Conditions: optimal conditions, 55 °C, 20 mM citric acid-Na2HPO4 pH 6.0 (standard assay), free enzyme

Row | Protein | Km [µM] | Vmax [µmol/min/mg] | kcat [s⁻¹] | kcat/Km [M⁻¹ s⁻¹]
1 | B1 | 720 ± 30 | 625 | 326 ± 17 | 453000 ± 18000
2 | B2 | 500 ± 20 | 455 | 306 ± 9 | 612000 ± 12000
